Assay results reported in patent US9777044B2, “GLUT-1 as a receptor for HTLV envelopes and its uses” (CENTRE NATIONAL DE LA RECHERCHE SCIENTIFIQUE (CNRS), priority 2003, dated 2017).

Tests used:
murine erythrocytes = assay: RBD binding on murine erythrocytes
PiT2 = assay: RBD binding to cells overexpressing PiT2
293T cells = assay: Glucose consumption of transfected cells; type: cell-based, human; details: normalized to cellular protein content
Procedure: Envelope expression and metabolic measurements. 293T cells were transfected with the various envelope expression vectors using a modified version of the calcium phosphate method. After an overnight transfection, cells were washed in phosphate-buffered saline (PBS) and fresh medium was added. Media were harvested at the indicated time points, filtered through a 0.45-μm pore-size filter, and lactate and glucose were measured with enzymatic diagnostic kits (Sigma). Values were normalized to cellular protein content using the Bradford assay (Sigma) after solubilization of cells in lysis buffer (50 mM Tris-HCl pH 8.0, 150 mM NaCl, 0.1% sodium dodecyl sulfate, 1.0% Nonidet P-40, 0.5% deoxycholate) and clarification by centrifugation.

GLUT-1 [1] = biological target: T1, GLUT-1 (Homo sapiens, UniProt P11166); assay: Immunoprecipitation of GLUT-1-HA with anti-rabbit-Fc beads; type: binding; details: co-expression with GLUT-1 in 293T cells, probed with anti-HA antibody
T1 construct: factor Xa cleavage site (C); His (C); expressed in transfected cells
T1 sequence (P11166 1-492): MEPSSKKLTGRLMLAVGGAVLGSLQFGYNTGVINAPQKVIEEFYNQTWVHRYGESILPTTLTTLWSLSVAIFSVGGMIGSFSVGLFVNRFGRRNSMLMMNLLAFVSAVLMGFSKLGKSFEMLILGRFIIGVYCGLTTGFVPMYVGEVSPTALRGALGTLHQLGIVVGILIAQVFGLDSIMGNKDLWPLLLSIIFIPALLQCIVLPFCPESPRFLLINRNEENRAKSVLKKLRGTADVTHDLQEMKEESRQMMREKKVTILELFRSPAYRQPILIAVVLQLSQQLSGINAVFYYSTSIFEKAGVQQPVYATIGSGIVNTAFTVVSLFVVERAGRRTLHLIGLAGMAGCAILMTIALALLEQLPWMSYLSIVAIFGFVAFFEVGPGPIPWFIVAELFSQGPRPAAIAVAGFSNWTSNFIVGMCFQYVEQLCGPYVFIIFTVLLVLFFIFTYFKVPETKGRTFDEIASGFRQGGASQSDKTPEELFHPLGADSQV
Source text: FIGS. 4a-4c GLUT-1 is a receptor for HTLV envelopes. FIG. 4a, Binding of H1RBD, H2RBD, H2RBD D102A mutant, and ARBD to control 293T cells or 293T cells overexpressing either GLUT-1 or PiT2. FIG. 4b, Binding of H2RBD-EGFP to cells overexpressing GLUT-1-HA or GLUT-3-HA, and corresponding immunoblots using an anti-HA antibody. FIG. 4c, Immunoprecipitation of GLUT-1-HA from 293T cells transfected with either an irrelevant construct, GLUT-1 alone, H1RBD alone, H1RBD Y114A alone, GLUT-1 with H1RBD or GLUT-1 with H1RBD Y114A expression vectors Immunoprecipitation was performed using anti-rabbit-Fc beads and probed with an anti-HA antibody. Total cell extracts were blotted using an anti-rabbit Fc or an anti-HA antibody.
In order to directly test the ability of HTLV envelopes to bind GLUT-1, we derived a tagged GLUT-1 expression vector and overexpressed this protein in HeLa cells. […] GLUT-3 is the closest isoform to GLUT-1, and transports glucose with kinetics similar to that of GLUT-1. Thus, we derived a tagged GLUT-3 expression vector. […] To determine if GLUT-1 transfected cells were directly responsible for the observed increased in H1RBD binding, we derived fluorescent tagged GLUT-1 and GLUT-3 to uniquevocally identity GLUT-overexpressing cells in the course of our FACS analysis. […] To this end, we evaluated the ability of H1RBD to immunoprecipitate GLUT-1. […]

human erythrocytes = assay: RBD binding on freshly isolated human erythrocytes; details: freshly isolated red blood cells
Procedure: Binding assays. Binding assays were carried out as previously described [Manel, 2003]. Briefly, 5×10^5 cells (293T, HeLa, Jurkat or freshly isolated human erythrocytes) were incubated with 500 μl of H1RBD, H2RBD or ARBD supernatants for 30 min at 37° C., washed with PBA (1% BSA, 0.1% sodium azide in PBS), and incubated with a sheep anti-rabbit IgG antibody conjugated to fluorescein isothiocyanate (Sigma). […] Binding was analyzed on a FACSCalibur (Becton Dickinson) and data analysis was performed using CellQuest (Becton Dickinson) and WinMDI (Scripps) softwares.

GLUT-1 [2] = biological target: T1, GLUT-1; assay: RBD binding to cells overexpressing GLUT-1
Source text: In order to directly test the ability of HTLV envelopes to bind GLUT-1, we derived a tagged GLUT-1 expression vector and overexpressed this protein in HeLa cells. […] GLUT-3 is the closest isoform to GLUT-1, and transports glucose with kinetics similar to that of GLUT-1. Thus, we derived a tagged GLUT-3 expression vector. […] To determine if GLUT-1 transfected cells were directly responsible for the observed increased in H1RBD binding, we derived fluorescent tagged GLUT-1 and GLUT-3 to uniquevocally identity GLUT-overexpressing cells in the course of our FACS analysis. […] Consequently, we tested if HTLV glycoproteins directly interact with GLUT-1 proteins. To this end, we evaluated the ability of H1RBD to immunoprecipitate GLUT-1. […] Therefore, the GLUT-1 glucose transporter is an essential component of the HTLV envelope receptor.
Expression vectors. Full length envelope expression vectors for HTLV-1 (pCEL/2[Denesvre, 1995]) and Friend ecotropic MLV (pCEL/F [Denesvre, 1995]), have been previously described. For the HTLV-2 envelope, a fragment from pHTE2 [Rosenberg, 1998] encompassing the tax, rex and env genes and the 3′ LTR was inserted in the pCSI [Battini, 1999] vector (pCSIX.H2). Full length envelope expression vectors for amphotropic MLV (pCSI.A), or devoid of its R peptide (pCSI.AΔR), and H183FEnv that contains the N-terminal 183 amino acids of the HTLV-1 receptor-binding domain in the F-MLV envelope background, as well as truncated envelope expression vectors, derived from pCSI and encoding either of the first 215 residues of HTLV-1 SU (H1RBD), the first 178 residues of HTLV2-SU (H2RBD) or the first 397 residues of the amphotropic murine leukemia virus (MLV) SU (Amp), fused to a C-terminal rabbit IgG Fc tag (rFc) or to EGFP (H2RBD-GFP). All point mutations introduced in HTLV-1 and -2 RBD constructs were generated using the quickchange site-directed mutagenesis method and mutations were verified by sequencing. Human Glut-1 and Glut-3 cDNA were amplified by PCR from the pLib HeLa cDNA library (Clontech), and inserted into pCHIX, a modified version of the pCSI vector that contains a cassette comprising a factor Xa cleavage site, two copies of the hemagglutinin (HA) tag, and a histidine tag. The resulting construct (pCHIX.hGLUT1) encodes a GLUT-1 protein with a HA-His tag at the C-terminal end. GLUT-1 and GLUT-3 were also inserted in a modified pCSI vector containing a DsRed2 C-terminal tag. Similarly, human CD147 was amplified from 293T total RNA by RT-PCR and inserted into the pCHIX backbone in frame with the HA-His tag (pCHIX.hCD147).
Binding assays. […] Binding was analyzed on a FACSCalibur (Becton Dickinson) and data analysis was performed using CellQuest (Becton Dickinson) and WinMDI (Scripps) softwares.

B1: H1RBD: first 215 residues of HTLV-1 SU fused to a C-terminal rabbit IgG Fc tag (rFc) (protein)
chain: DYSPSCCTLTIGVSSYHSKPCNPAQPVCSWTLDLLALSADQALQPPCPNLVSYSSYHATYSLYLFPHWIKKPNRNGGGYYSASYSDPCSLKCPYLGCQSWTCPYTGAVSSPYWKFQQDVNFTQEVSRLNINLHFSKCGFPFSLLVDAPGYDPIWFLNTEPSQLPPTAPPLLPHSNLDHILEPSIPWKSKLLTLVQVDVPRDCGCKPCICTVPEVSSVFIFPPKPKDVLTITLTPKVTCVVVDISKDDPEVQFSWFVDDVEVHTAQTQPREEQFNSTFRSVSELPIMHQDWLNGKEFKCRVNSAAFPAPIEKTISKTKGRPKAPQVYTIPPPKEQMAKDKVSLTCMITDFFPEDITVEWQWNGQPAENYKNTQPIMDTDGSYFVYSKLNVQKSNWEAGNTFTCSVLHEGLHNHHTEKSLSHSPGK
binding on murine erythrocytes (murine erythrocytes): no significant H1RBD binding could be detected | binding upon overexpression of PiT2 (PiT2): remained at background levels | Glucose consumption compared to control cells (293T cells): significantly decreased | detection of GLUT-1 upon immunoprecipitation with anti-rabbit-Fc-beads (GLUT-1 [1]): readily detected | binding on human erythrocytes (human erythrocytes): strikingly efficient | H1RBD binding to cells overexpressing GLUT-1-DsRed2 (GLUT-1 [2]; fluorescent tagged GLUT-1, FACS analysis): significant increase | binding upon GLUT-1 overexpression (GLUT-1 [2]; tagged GLUT-1 expression vector, HeLa cells / 293T cells (FIG. 4a legend)): dramatically increased
